What follows are substances tested against Angiotensin converting enzyme (rabbit lung acetone powder, Sigma; supernatant of the extract) (rabbit) (UniProt P12822) (assay: cell-based or functional assay).
UniProt P12822, sequence (P12822 34-1310 limits assumed): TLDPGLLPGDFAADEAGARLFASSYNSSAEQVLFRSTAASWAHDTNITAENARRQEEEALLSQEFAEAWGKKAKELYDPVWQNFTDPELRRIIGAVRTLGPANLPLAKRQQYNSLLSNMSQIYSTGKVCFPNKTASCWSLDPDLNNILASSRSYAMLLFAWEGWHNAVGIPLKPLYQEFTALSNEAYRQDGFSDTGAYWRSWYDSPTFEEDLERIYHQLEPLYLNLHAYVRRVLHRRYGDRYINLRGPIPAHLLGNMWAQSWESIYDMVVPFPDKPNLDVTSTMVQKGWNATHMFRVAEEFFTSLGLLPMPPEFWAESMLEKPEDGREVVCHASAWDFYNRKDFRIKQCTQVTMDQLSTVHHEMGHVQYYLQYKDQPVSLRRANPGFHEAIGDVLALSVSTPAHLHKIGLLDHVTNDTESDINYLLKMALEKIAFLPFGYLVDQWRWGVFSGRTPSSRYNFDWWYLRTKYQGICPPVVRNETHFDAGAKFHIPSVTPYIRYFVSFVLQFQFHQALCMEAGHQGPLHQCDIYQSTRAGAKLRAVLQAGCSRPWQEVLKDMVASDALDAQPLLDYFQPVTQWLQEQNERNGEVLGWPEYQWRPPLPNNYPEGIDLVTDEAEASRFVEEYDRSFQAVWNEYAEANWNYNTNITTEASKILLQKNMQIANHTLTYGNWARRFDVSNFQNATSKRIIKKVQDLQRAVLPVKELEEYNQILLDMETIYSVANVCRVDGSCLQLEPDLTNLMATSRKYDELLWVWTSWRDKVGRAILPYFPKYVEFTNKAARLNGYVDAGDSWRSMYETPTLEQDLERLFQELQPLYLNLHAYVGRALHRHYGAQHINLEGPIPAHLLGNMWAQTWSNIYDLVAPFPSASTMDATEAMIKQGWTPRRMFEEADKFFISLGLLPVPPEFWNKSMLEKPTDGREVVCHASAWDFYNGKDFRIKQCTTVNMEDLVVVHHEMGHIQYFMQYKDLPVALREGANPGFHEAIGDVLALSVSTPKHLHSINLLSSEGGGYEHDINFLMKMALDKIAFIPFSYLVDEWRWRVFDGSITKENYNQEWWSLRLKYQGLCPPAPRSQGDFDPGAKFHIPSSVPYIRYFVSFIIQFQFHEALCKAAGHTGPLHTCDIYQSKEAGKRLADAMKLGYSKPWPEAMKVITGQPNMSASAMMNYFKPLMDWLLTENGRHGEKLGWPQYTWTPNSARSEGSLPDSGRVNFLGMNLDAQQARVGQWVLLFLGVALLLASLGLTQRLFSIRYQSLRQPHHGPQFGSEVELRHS

| IC50 (angiotensin converting enzyme inhibitory activity, Bz-Gly-His-Leu substrate, OD228 of hippuric acid) [µg/mL] | Substance |
| --- | --- |
| 80 | Fraction E-1: concentrated thermolysin hydrolysate of the hot-water-extracted residue of dried bonito |
| 300 | Fraction E-2: membrane-concentrated fraction of E-1 |
| 30 | Fraction E-3: membrane-penetrating fraction of E-1 |
| 200 | Fraction E-4: ethanol precipitate of E-1 |
| 40 | Fraction E-5: ethanol-soluble fraction of E-1 |
| 110 | Fraction E-6: concentrated thermolysin hydrolysate of homogenized dried bonito |
| 310 | Fraction E-7: membrane-concentrated fraction of E-6 |
| 35 | Fraction E-8: membrane-penetrating fraction of E-6 |
| 200 | Fraction E-9: ethanol precipitate of E-6 |
| 50 | Fraction E-10: ethanol-soluble fraction of E-6 |

Source: patent publication US7034002
